From patent publication US20220281967A1 (OREGA BIOTECH, published 2022)

T1: human IL-17B (R&D Systems, ref: 1248-IB/CF) (UniProt Q9UHF5 21-180)
T1 chain: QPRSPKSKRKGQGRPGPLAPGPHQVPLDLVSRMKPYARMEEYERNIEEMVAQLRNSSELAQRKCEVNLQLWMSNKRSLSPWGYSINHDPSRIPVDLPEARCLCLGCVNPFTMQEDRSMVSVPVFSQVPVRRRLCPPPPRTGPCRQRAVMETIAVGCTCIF

T2: human IL-17B (R&D Systems, ref: 1248-IB/CF) (human, UniProt Q9UHF5 21-180)
T2 construct: Bought recombinant protein; also called hIL-17B; interleukin 17B
T2 sequence: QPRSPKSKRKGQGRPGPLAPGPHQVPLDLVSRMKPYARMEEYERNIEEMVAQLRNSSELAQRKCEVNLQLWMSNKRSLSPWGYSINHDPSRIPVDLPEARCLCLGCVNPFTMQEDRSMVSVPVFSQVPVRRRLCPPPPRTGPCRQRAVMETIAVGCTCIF


Columns and labels:
[1] = target: T1, human IL-17B (R&D Systems, ref: …); experiment: ELISA
[2] = target: T2, human IL-17B (R&D Systems, ref: …); experiment: ELISA, human IL-17B coated on the plate, goat anti-mouse HRP detection
Method: Immediately coat a Maxisorp 96-well plate; [0250] […] Incubate 15 min at RT with 50 μl of ABTS substrate (Sigma-Aldrich, ref: A3219-100 ML) [0260] Measure DO (Optical Density) at 405 nm

EC50 [1] [ng/mL] | binding result [2] | Binder
6.64 | binds | Antibody 13H5 (antibody, V domains shown, Mouse monoclonal antibody directed against human IL-17B; also called mAb 13H5) VH: QVTLKESGPGILQPSQTLSLTCSFSGFSLSTFGMGVGWIRQPSGKGLEWLAHIWWDDDKYYNPALKSRLTISKDTSKNQVFLKIANVDTADTATYYCARMNDGYLYYWGQGTSVTVSS VL: QIVLTQSPAIMSASPGEKVTMTCSASSSVSYMYWYQQKPGSSPRLLIYDTSNLASGVPVRFSGSGSGTSYSLTISRMEAEDAATYYCQQWSSYPFTFGSGTKLEIK
2.28 | binds | Antibody 21H6 (antibody, V domains shown, Mouse monoclonal antibody directed against human IL-17B; also called mAb 21H6) VH: QVTLKESGPGILQPSQTLSLTCSFSGFSLSTFGMGVGWIRQPSGKGLEWLAHIWWDDDKYYNPALKGRLTISKDTSKNQVFLKIANVDTADTATYFCARIEDALDYWGQGTSVTVSS VL: DIVMTQSPATLSVTPGDRVSLSCRASQNISDYLHWYQQKSHESPRLLIKYTSQSISGIPSRFSGSGSGSDFTLSINSVEPEDVGVYYCQNGHSFPFTFGSGTKLEIK
6.88 | binds | Antibody 18G9 (antibody, V domains shown, Mouse monoclonal antibody directed against human IL-17B; also called mAb 18G9; 18G9a) VH: QITLKESGPGILKPSQTLSLTCSFSGFSLSTSGMGVGWIRQPSGKGLEWLAHIWWDDDKYYNPSLKSQLTISKDTSRNQVFLRITSVDTADTATYYCARRTQGYFDYWGQGTTLTVSS VL: DILMTQSPASLAVSLGQRATISCKASQSVDYDGDSYMNWYQQKPGQPPKLLIYAASNLESGIPARFSGSGSGTDFTLNIHPVEEEDAATYYCQQSNEDPLTFGAGTKLELK
13.7 | binds | Antibody 12F9 (antibody, V domains shown, Mouse monoclonal antibody directed against human IL-17B; also called mAb 12F9) VH: QVQLQQSGPELVKPGASVKISCKASGYTFTDYFINWVRQRPGQGLEWIGWIFPGSGSTYYHEKFKGKATLTVDKSSSTAYMLLSSLTSEDSAVYFCARTLYGNWYFDVWGTGTTVTVSS VL: DVLMTQTPLSLPVSLGDQASISCRSSQSIVHSNGNTYLEWYLQKPGQSPKLLIYKVSNRFSGVPDRFSGSGSGTDFTLKISRVEAEDLGVYYCFQGSHVPYTFGGGTKLEIK
